Measured values: IntAct's records for PubMed 17703188

B1: Discoidin domain-containing receptor 2 (Homo sapiens), Q16832 (parent)
chain: MILIPRMLLVLFLLLPILSSAKAQVNPAICRYPLGMSGGQIPDEDITASSQWSESTAAKYGRLDSEEGDGAWCPEIPVEPDDLKEFLQIDLHTLHFITLVGTQGRHAGGHGIEFAPMYKINYSRDGTRWISWRNRHGKQVLDGNSNPYDIFLKDLEPPIVARFVRFIPVTDHSMNVCMRVELYGCVWLDGLVSYNAPAGQQFVLPGGSIIYLNDSVYDGAVGYSMTEGLGQLTDGVSGLDDFTQTHEYHVWPGYDYVGWRNESATNGYIEIMFEFDRIRNFTTMKVHCNNMFAKGVKIFKEVQCYFRSEASEWEPNAISFPLVLDDVNPSARFVTVPLHHRMASAIKCQYHFADTWMMFSEITFQSDAAMYNNSEALPTSPMAPTTYDPMLKVDDSNTRILIGCLVAIIFILLAIIVIILWRQFWQKMLEKASRRMLDDEMTVSLSLPSDSSMFNNNRSSSPSEQGSNSTYDRIFPLRPDYQEPSRLIRKLPEFAPGEEESGCSGVVKPVQPSGPEGVPHYAEADIVNLQGVTGGNTYSVPAVTMDLLSGKDVAVEEFPRKLLTFKEKLGEGQFGEVHLCEVEGMEKFKDKDFALDVSANQPVLVAVKMLRADANKNARNDFLKEIKIMSRLKDPNIIHLLAVCITDDPLCMITEYMENGDLNQFLSRHEPPNSSSSDVRTVSYTNLKFMATQIASGMKYLSSLNFVHRDLATRNCLVGKNYTIKIADFGMSRNLYSGDYYRIQGRAVLPIRWMSWESILLGKFTTASDVWAFGVTLWETFTFCQEQPYSQLSDEQVIENTGEFFRDQGRQTYLPQPAICPDSVYKLMLSCWRRDTKNRPSFQEIHLLLLQQGDE

Variants of: B1
Settings: with coba2_human COL11A2, P13942
Chain of coba2_human COL11A2, P13942 (P13942 whole entry): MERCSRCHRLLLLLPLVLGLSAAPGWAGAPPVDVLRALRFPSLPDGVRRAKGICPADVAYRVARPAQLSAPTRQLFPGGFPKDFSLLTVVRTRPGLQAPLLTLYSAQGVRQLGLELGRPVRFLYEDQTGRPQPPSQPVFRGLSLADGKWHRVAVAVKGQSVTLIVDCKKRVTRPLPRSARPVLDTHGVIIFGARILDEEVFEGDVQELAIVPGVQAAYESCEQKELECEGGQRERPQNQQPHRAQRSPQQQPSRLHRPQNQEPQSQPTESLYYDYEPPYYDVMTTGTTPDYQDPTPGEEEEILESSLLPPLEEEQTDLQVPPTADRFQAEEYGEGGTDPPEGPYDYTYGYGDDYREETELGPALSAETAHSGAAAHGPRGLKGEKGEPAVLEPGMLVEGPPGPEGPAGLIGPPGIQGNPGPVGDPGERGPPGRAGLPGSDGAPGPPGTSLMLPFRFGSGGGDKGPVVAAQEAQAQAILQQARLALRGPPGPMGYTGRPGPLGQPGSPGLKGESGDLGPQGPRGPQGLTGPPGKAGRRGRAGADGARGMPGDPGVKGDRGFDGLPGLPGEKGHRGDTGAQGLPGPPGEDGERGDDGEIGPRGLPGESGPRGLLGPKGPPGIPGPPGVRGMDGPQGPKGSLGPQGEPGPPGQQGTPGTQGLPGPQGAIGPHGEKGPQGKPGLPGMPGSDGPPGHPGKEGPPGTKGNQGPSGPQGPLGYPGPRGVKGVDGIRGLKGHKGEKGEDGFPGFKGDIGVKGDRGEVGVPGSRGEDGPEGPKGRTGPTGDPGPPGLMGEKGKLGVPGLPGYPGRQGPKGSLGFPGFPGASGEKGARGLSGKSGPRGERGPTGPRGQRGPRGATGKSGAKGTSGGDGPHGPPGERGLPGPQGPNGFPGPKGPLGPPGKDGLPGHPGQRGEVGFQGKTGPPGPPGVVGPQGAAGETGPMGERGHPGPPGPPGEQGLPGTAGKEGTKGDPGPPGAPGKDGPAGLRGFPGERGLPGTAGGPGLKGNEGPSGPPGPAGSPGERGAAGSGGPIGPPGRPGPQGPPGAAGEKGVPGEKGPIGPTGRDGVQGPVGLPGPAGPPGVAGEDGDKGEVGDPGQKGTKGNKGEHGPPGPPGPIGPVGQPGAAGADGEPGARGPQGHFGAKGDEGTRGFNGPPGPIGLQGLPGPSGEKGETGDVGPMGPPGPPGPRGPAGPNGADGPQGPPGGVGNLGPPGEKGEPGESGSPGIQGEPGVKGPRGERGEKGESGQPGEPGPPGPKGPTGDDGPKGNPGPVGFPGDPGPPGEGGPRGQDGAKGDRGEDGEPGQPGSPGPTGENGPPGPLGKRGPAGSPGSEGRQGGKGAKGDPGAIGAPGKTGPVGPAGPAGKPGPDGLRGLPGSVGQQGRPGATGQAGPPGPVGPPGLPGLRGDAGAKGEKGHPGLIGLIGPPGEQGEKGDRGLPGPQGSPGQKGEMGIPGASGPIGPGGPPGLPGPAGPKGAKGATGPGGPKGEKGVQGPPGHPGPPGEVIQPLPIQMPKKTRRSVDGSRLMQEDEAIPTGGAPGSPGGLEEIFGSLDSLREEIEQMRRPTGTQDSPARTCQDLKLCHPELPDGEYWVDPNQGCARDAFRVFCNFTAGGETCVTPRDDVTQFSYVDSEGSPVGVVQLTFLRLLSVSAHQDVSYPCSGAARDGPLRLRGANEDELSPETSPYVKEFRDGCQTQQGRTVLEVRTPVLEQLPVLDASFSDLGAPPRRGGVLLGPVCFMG

Row | effect of a mutation on the interaction | Variant
1 | disrupting interaction | E113A
2 | disrupting interaction | R105A
3 | disrupting interaction | W52A
